The supplement of paper PMC7877785
± gives the uncertainty stated by the source.

Experiment: self-splicing fitness, log relative to wild type (ln ratio); higher = more splicing; Tetrahymena group I intron in knt gene, E. coli kanamycin selection, DiMSum; sequences stand for … in CUCUCU…GGAGGGAAAAGUUAUCAGGCAUGCACCUGGUAGCUAGUCUUUAAACCAAUAGAUUGCAUCGGUUUAAAAGGCAAGACCGUCAAAUUGCGGGAAAGGGGUCAACAGCCGUUCAGUACCAAGUCUCAGGGGAAACUUUGAGAUGGCCUUGCAAAGGGUAUGGUAAUAAGCUGACGGACAUGGUCCUAACCACGCAGCCAAGUCCUAAGUCAACAGAUCUUCUGUUGAUAUGGAUGCAGUUCACAGACUAAAUGUCGGUCGGGGAAGAUGUAUUCUUCUCAUAAGAUAUAGUCGGACCUCUCCUUAAUGGGAGCUAGCGGAUGAAGUGAUGCAACACUGGAGCCGCUGGGAACUAAUUUGUAUGCGAAAGUAUAUUGAUUAGUUUUGGAGUACUCGUGGUCG
Summary of the method: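 A randomised library covering all eight P1ex-region intron nucleotides was built with the intron in the knt kanamycin-resistance gene on pET-22b(+) and held in E. coli BL21(DE3). Cells were grown overnight at 37°C or 30°C on LB agar, with or without 25 μg/mL kanamycin, plus 100 μg/mL carbenicillin, 50 μM IPTG and 0.2% rhamnose, and pooled colonies were amplicon-sequenced on an Illumina HiSeq 2500. DiMSum fitness is the error-weighted combination of wild-type-normalised replicate fold changes, kanamycin versus none.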

Row | Sequence | self-splicing fitness (ln) (30 °C) | self-splicing fitness (ln) (37 °C)
1 | GAGAAGCAAUAUUACGGGAU | -3.32 ± 0.16 | -2.58 ± 0.2
2 | GAGAAGCAAUAUUACGGGUC | -3.08 ± 0.15 | -2.24 ± 0.16
3 | GAGAAGCAAUAUUACGGUCU | -2.29 ± 0.13 | -1.16 ± 0.17
4 | GAGAAGCAAUAUUACGUAGA | -2 ± 0.14 | -0.626 ± 0.14
5 | GAGAAGCAAUAUUACGUAUA | -2.51 ± 0.14 | -1.71 ± 0.14
6 | GAGAAGCAAUAUUACGUCCA | -0.235 ± 0.12 | 0.335 ± 0.14
7 | GAGAAGCAAUAUUACGUCUU | -2.33 ± 0.23 | -2.92 ± 0.36
8 | GAGAAGCAAUAUUACGUGGU | -3.27 ± 0.17 | -2.32 ± 0.21
9 | GAGCAGCAAUAUUACGAAUA | -2.87 ± 0.37 | -1.8 ± 0.24
10 | GAGCAGCAAUAUUACGAAUC | -2.08 ± 0.07 | -1.22 ± 0.083
11 | GAGCAGCAAUAUUACGAGAA | -2.25 ± 0.31 | -2.61 ± 0.36
12 | GAGCAGCAAUAUUACGAGCA | -0.982 ± 0.11 | -0.888 ± 0.13
13 | GAGCAGCAAUAUUACGAGUU | -2.48 ± 0.13 | -1.1 ± 0.13
14 | GAGCAGCAAUAUUACGAUCU | -1.71 ± 0.15 | -0.141 ± 0.12
15 | GAGCAGCAAUAUUACGAUGG | -3.68 ± 0.25 | -2.61 ± 0.31
16 | GAGCAGCAAUAUUACGCAAA | -1.4 ± 0.2 | -0.683 ± 0.14
17 | GAGCAGCAAUAUUACGCAAG | -1.36 ± 0.16 | -0.218 ± 0.3
18 | GAGCAGCAAUAUUACGCAAU | -1.89 ± 0.12 | -1.53 ± 0.2
19 | GAGCAGCAAUAUUACGCCAG | -2.49 ± 0.42 | -2.85 ± 0.34
20 | GAGCAGCAAUAUUACGCCUA | -0.758 ± 0.064 | 0.0984 ± 0.085
21 | GAGCAGCAAUAUUACGCCUU | -3.8 ± 0.32 | -1.32 ± 0.19
22 | GAGCAGCAAUAUUACGCGAA | -3.01 ± 0.25 | -1.27 ± 0.15
23 | GAGCAGCAAUAUUACGCGGC | -3.97 ± 0.25 | -1.87 ± 0.14
24 | GAGCAGCAAUAUUACGGAUA | -2.15 ± 0.22 | -2.11 ± 0.26

Row | Sequence | self-splicing fitness (ln) (30 °C) | self-splicing fitness (ln) (37 °C)
25 | GAGCAGCAAUAUUACGGCAG | -2.34 ± 0.16 | -1.69 ± 0.19
26 | GAGCAGCAAUAUUACGGCCU | -0.475 ± 0.07 | -0.0538 ± 0.081
27 | GAGCAGCAAUAUUACGGCUG | -3.87 ± 0.26 | -2.51 ± 0.28
28 | GAGCAGCAAUAUUACGGCUU | -4.43 ± 0.33 | -2.53 ± 0.27
29 | GAGCAGCAAUAUUACGGGAU | -3.27 ± 0.27 | -3.1 ± 0.23
30 | GAGCAGCAAUAUUACGGUAA | -1.95 ± 0.13 | -0.00417 ± 0.12
31 | GAGCAGCAAUAUUACGGUUU | -3.11 ± 0.17 | -1.84 ± 0.19
32 | GAGCAGCAAUAUUACGUGAA | -0.549 ± 0.079 | -0.526 ± 0.13
33 | GAGCAGCAAUAUUACGUUCG | -1.51 ± 0.097 | -0.474 ± 0.098
34 | GAGCAGCAAUAUUACGUUGC | -4.45 ± 0.34 | -3.41 ± 0.23
35 | GAGCAGCAAUAUUACGUUUA | -1.17 ± 0.092 | -1 ± 0.097
36 | GAGCAGCAAUAUUACGUUUU | -2.63 ± 0.092 | -2.3 ± 0.12
37 | GAGGAGCAAUAUUACGAAGG | -4.59 ± 0.46 | -2.39 ± 0.27
38 | GAGGAGCAAUAUUACGACGA | -1.2 ± 0.13 | 0.494 ± 0.13
39 | GAGGAGCAAUAUUACGAGAC | -2.67 ± 0.22 | 
40 | GAGGAGCAAUAUUACGAUUU | -1.07 ± 0.1 | -0.084 ± 0.13
41 | GAGGAGCAAUAUUACGCAGC |  | -1.04 ± 0.44
42 | GAGGAGCAAUAUUACGCAUU | -2.99 ± 0.43 | -0.645 ± 0.33
43 | GAGGAGCAAUAUUACGCCGG | -3.44 ± 0.48 | -2.68 ± 0.36
44 | GAGGAGCAAUAUUACGCGUC |  | -1.75 ± 0.38
45 | GAGGAGCAAUAUUACGGAGA | -2.95 ± 0.2 | -2.25 ± 0.27
46 | GAGGAGCAAUAUUACGGCAC | -2.08 ± 0.19 | -1.64 ± 0.19
47 | GAGGAGCAAUAUUACGGGGA | -1.86 ± 0.23 | -3.17 ± 0.4
48 | GAGGAGCAAUAUUACGUCCA | -1.23 ± 0.12 | -0.83 ± 0.16
